Where two headings read alike, the source gives them in different places.
Tests used:
[1] = biological target: T1, triple-helical peptide (THP) [(POG)10]3 (synthetic construct, O of each POG triplet, as printed in (POG)10); test: ITC
[2] = biological target: T1, triple-helical peptide (THP) [(POG)10]3; test: ITC; remark: listed apart in the source

B1: ColG-activator domain (domain or fragment)
chain: YDFEYLNGLSYTELTNLIKNIKWNQINGLFNYSTGSQKFFGDKNRVQAIINALQESGRTYTANDMKGIETFTEVLRAGFYLGYYNDGLSYLNDRNFQDKCIPAMIAIQKNPNFKLGTAVQDEVITSLGKLIGNASANAEVVNNCVPVLKQFRENLNQYAPDYVKGTAVNELIKGIEFDFSGAAYEKDVKTMPWYGKIDPFINELKALGLYGNITSATEWASDVGIYYLSKFGLYSTNRNDIVQSLEKAVDMYKYGKIAFVAMERITWDYD
- Kd [1]: 3.28 µM

B2: recombinant activator domain of VhaC (domain or fragment)
chain: SAEQAANVCDVEAFTSNSSNDVLNAIKTQGASCVNALFSAESRIQEAAFESGHMYNIAKHTTDLAKAYAGGGSDELEALFLYLRAGYYAEFYNSKVSFLSWVTPAVKEAVDAFVNNANFYENSDPHGKVLSEVIITMDSAGLQHAYLPQVTQWLTRWDSQYAQNWYMRNAVNGVFTILFGGQWNEQFVQTIGNQTELAKALGDFALRSSAIGASDEFMAANAGRELGRLTKYSGSASSTVKSKLTEIFAQYEMYGRGDAIWLGAADTVSYYADCSDY
- Kd [2]: 82.8 µM

From article PMC8799719 (2022)
